# Results reported in paper PMC9050506 (RSC Advances, 2020).
# B1: CVN2L0-V4: CVN2L0 variant with Cys–Cys mutagenesis to Trp–Met and Glu–Arg, two disulfide bonds (protein)
# chain: LGKFSQTCYNSAIQGSVLTSTCERTNGGYNTSSIDLNSVIENVDGSLKWQPSNFIETWRNTQLAGSSELAAEMKTRAQQFVSTKINLDDHIANIDGTLKYELGKFSQTCYNSAIQGSVLTSTCERTNGGYNTSSIDLNSVIENVDGSLKWQPSNFIETERNTQLAGSSELAAERKTRAQQFVSTKINLDDHIANIDGTLKYE
# modifications: left off: His6, N-terminal, state not stated
# B2: wild-type CV-N: 11 kDa lectin originating from Nostoc ellipsosporum (protein, UniProt P81180 1-101, looked up)
# Cyanovirin-N: LGKFSQTCYNSAIQGSVLTSTCERTNGGYNTSSIDLNSVIENVDGSLKWQPSNFIETCRNTQLAGSSELAAECKTRAQQFVSTKINLDDHIANIDGTLKYE
# Assays:
# [1] = tested on: dimannosylated peptide P2 (DM); type: binding
# [2] = binding partner not given; cited from earlier work
molecule,measurement,setting,value
"CVN2L0-V2: CVN2L0 variant with one C58E–C73R substitution, three disulfide bonds","Rmax, binding to DM",[1]; SPR sensorgrams Fig. 3E-F,132 RU
B1,binding to DM (in words),"[1]; SPR, listed as V4",showed binding
B2,Kd,[2],5.7 nM
